The test system of this data set is Cc1c(F)c(N2CCNC(C)C2)cc2c1c(=O)c(C(=O)O)cn2C1CC1. Nature of the data set: TP_TRANSPORTER: transepithelial transport (basal to apical) in Caco-2 cells. Format: functional, cell-based. For orientation: Caco-2 monolayers are a common model of the intestinal barrier.

As usually defined, the Km is the substrate concentration at which the rate is half of its maximum. As for “ATP-dependent translocase ABCB1 (Homo sapiens)”, the Km was determined as 580 µM.
